Measured values: US20240400677A1

Assays:
[1] = target: human SIRPγ on primary human T-cells (human) (UniProt Q9P1W8); assay: flow cytometry, naive resting human CD3+ T cells
[2] = target: human SIRPγ on primary human T-cells (human) (UniProt Q9P1W8); assay: flow cytometry, anti-CD3/CD28-stimulated human CD4+ T cells
[3] = target: human SIRPγ on primary human T-cells (human) (UniProt Q9P1W8); assay: flow cytometry, anti-CD3/CD28-stimulated human CD3+ T cells
[4] = target: human SIRPγ on primary human T-cells (human) (UniProt Q9P1W8); assay: flow cytometry, naive resting human CD8+ T cells
[5] = target: human SIRPγ on primary human T-cells (human) (UniProt Q9P1W8); assay: flow cytometry, naive resting human CD4+ T cells
[6] = target: human SIRPγ on primary human T-cells (human) (UniProt Q9P1W8); assay: flow cytometry, anti-CD3/CD28-stimulated human CD8+ T cells

human SIRPγ on primary human T-cells (human), sequence (Q9P1W8 29-387 limits assumed): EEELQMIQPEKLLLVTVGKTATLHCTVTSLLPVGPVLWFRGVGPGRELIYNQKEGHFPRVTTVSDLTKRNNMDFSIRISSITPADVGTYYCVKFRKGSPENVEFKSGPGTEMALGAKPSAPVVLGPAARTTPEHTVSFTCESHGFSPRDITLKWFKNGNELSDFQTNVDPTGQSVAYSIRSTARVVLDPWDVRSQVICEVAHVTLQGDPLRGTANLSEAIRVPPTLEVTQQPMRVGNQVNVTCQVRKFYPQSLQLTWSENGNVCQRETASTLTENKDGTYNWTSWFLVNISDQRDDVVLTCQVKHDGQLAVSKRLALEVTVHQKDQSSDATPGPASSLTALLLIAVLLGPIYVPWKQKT

Which results are given for “mouse monoclonal antibody against human SIRPγ, clone OX-119 (ThermoFisher Scientific MA5-28215)”?
EC50 (read off the curve) [1]: 0.2 µg/mL; EC50 (read off the curve) [2]: 0.05 µg/mL; EC50 (read off the curve) [3]: 0.4 µg/mL; EC50 (read off the curve) [4]: 0.09 µg/mL; EC50 (read off the curve) [5]: 0.04 µg/mL; EC50 (read off the curve) [6]: 0.1 µg/mL
